Two molecules from US20200010519A1, “NUCLEASE FUSIONS FOR ENHANCING GENOME EDITING BY HOMOLOGY-DIRECTED TRANSGENE INTEGRATION” (INSTITUT NATIONAL DE LA SANTE ET DE LA RECHERCHE …, priority 2017, published 2020) can be followed below.

For this assay, the system named is AAVS1 locus. The assay can be described thus: HDI of GFP cDNA at AAVS1 locus, FACS analysis, HEK293 cells. It is filed as cell-based, human. For orientation: A flow cytometer gives signals particle by particle.

B1: HE2: Cas9 fused to HE2 (46-296 aa of CtIP; SEQ ID NO. 13), lacking the first 45 aa (protein, UniProt Q99708 46-296, looked up, fragment)
chain: KQERILDAQRLEEFFTKNQQLREQQKVLHETIKVLEDRLRAGLCDRCAVTEEHMRKKQQEFENIRQQNLKLITELMNERNTLQEENKKLSEQLQQKIENDQQHQAAELECEEDVIPDSPITAFSFSGVNRLRRKENPHVRYIEQTHTKLEHSVCANEMRKVSKSSTHPQHNPNENEILVADTYDQSQSPMAKAHGTSSYTPDKSSFNLATVVAETLGLGVQEESETQGPMSPLGDELYHCLEGNHKKQPFE
modifications: fused to Cas9
notes: Cas9 fused to HE2 (46-296 aa of CtIP; 13), lacking the first 45 aa
B1: the “HDI of GFP cDNA (homology-directed insertion of the GFP donor)” value was “HE1 was the only fragment shown to significantly stimulate”.

B2: HE3: Cas9 fused to HE3 (166-296 aa of CtIP; SEQ ID NO. 14) containing the 3 CDK phosphorylation sites (protein, UniProt Q99708 166-296, looked up, fragment)
chain: TAFSFSGVNRLRRKENPHVRYIEQTHTKLEHSVCANEMRKVSKSSTHPQHNPNENEILVADTYDQSQSPMAKAHGTSSYTPDKSSFNLATVVAETLGLGVQEESETQGPMSPLGDELYHCLEGNHKKQPFE
modifications: fused to Cas9
notes: Cas9 fused to HE3 (166-296 aa of CtIP; 14) containing the 3 CDK phosphorylation sites
On to B2, for which the “HDI of GFP cDNA (homology-directed insertion of the GFP donor)” value is reported as “HE1 was the only fragment shown to significantly stimulate”.
